Columns and labels:
Plasmin = Plasmin (Homo sapiens, UniProt P00747); assay: Velocity of S2251 substrate cleavage (Michaelis-Menten); type: biochemical; details: plasmin 100 nM, Pi 50 nM, S2251 0.1 to 4 mM
Method: FIGS. 2A-2D show comparative inhibition of plasmin activity by Pi EACA and a2AP. […] The percent residual activity of plasmin as a function of the log concentration of inhibitor is shown. […] Human plasmin (100 nM, Hematologic Technologies, Inc.) was mixed with or without Pi (50 nM) in the presence of the substrate S2251 (0.1 to 4 mM). The initial rate of substrate cleavage (6 min.) was monitored at A405. Data were plotted and analyzed using Michaelis-Menten kinetics by the Graphpad Prism Program. Means (duplicate observations) are shown and are representative of 4 separate experiments. […] The means of duplicate observations are shown. […] Plasmin (25 nM) was mixed with various concentrations (0-200 nM) of mouse Fab or chimeric Fab (cFab) and S2251 (0.5 mM) in TBS buffer pH 7.4. Plasmin activity was measured by the release of paranitroanilide product at A405 over time.
The effect of Pi on the velocity of substrate cleavage by human plasmin was examined. Human plasmin (100 nM, Hematologic Technologies, Inc.) was mixed with or without Pi (50 nM) in the presence of the substrate S2251 (0.1 to 4 mM). The initial rate of substrate cleavage (6 min.) was monitored at A405. Data were plotted and analyzed using Michaelis-Menten kinetics by the Graphpad Prism Program.

chymotrypsin = assay: Specificity of Pi binding (ELISA); details: plate coated 10 ug/ml
Method: (§1) FIGS. 3A-3D show binding and inhibitory specificity of Pi. […] The effect of various concentrations of Pi (0-2000 nM) on clots formed with human, baboon or African green monkey plasmas. Clot lysis was measured in microtiter plates after addition of urokinase as described in Methods.
(§2) Specificity of Pi binding. The binding of the Pi to different serine proteases was assessed by ELISA in 96-well plates coated with human plasminogen, mouse plasminogen, tPA, trypsin or chymotrypsin (10 ug/ml) and blocked with 1% BSA. After incubation and washing, Pi or control monoclonal antibody supernatants (anti-digoxin) were added to the wells for 1 h in triplicate. Then goat anti mouse antibody conjugated with HRP (1:5000, Sc-2005, Santa Cruz) was then added. The plate was washed after incubation for 1 h. TMB was added to the wells and absorbance at 370 nm was recorded.

human tPA = human tPA (Homo sapiens, UniProt P00750); assay: Specificity of Pi binding (ELISA); details: plate coated 10 ug/ml
Method: as §1, §2

mouse plasminogen = mouse plasminogen (Mus musculus, UniProt P20918); assay: Specificity of Pi binding (ELISA); details: plate coated 10 ug/ml
Method: as §1, §2

trypsin = assay: Specificity of Pi binding (ELISA); details: plate coated 10 ug/ml
Method: as §1, §2

[1] = tested on: African green monkey clots; assay: Primate clot lysis, microtiter plate, urokinase; type: biochemical; details: African green monkey plasma, Pi 0-2000 nM, urokinase 10 U
Method: as §1
(§3) The ability of Pi to inhibit primate clot lysis was also examined in a microtiter plate assay. Human, baboon or African green monkey plasma (5 ul) was added to 96-well plates in the presence of various concentrations of Pi (0-2000 nM), CaCl2 (2 mM), thrombin (0.125 U/ml) and human fibrinogen (2 mg/ml) and urokinase (10 U). The wells were incubated at 37° C., clot lysis was recorded kinetically for 120 min. and the time required for complete clot lysis was recorded.

baboon clots = assay: Primate clot lysis, microtiter plate, urokinase; type: biochemical; details: baboon plasma, Pi 0-2000 nM, urokinase 10 U
Method: as §1, §3

human clots = assay: Primate clot lysis, microtiter plate, urokinase; type: biochemical; details: human plasma, Pi 0-2000 nM, urokinase 10 U
Method: as §1, §3

[2] = tested on: human clot lysis initiated by r-tPA; assay: Clot lysis assay of Pi, MAb 340 and control MAb with r-tPA; type: biochemical; details: human plasma, MAb 20 ug, r-tPA 2 nm
Method: as §1
The comparative effects of Pi, MAb 340 and a control MAb (anti-digoxin) were examined in a clot lysis assay in microtiter plates. Human plasma (50 ul) was mixed with the MAbs (20 ug) in duplicate and then clotted with CaCl2 and thrombin, with or without recombinant (r)-tPA (2 nm). Clot dissolution at 37 deg. C. was monitored at 405 nm for 120 min. The time required to fully dissolve the clots during the 120 min. observation period was recorded.

[3] = biological target: plasmin-mediated cleavage of factor V (Homo sapiens, UniProt P00747); assay: Factor V cleavage by plasmin, SDS-PAGE; type: biochemical; details: EACA 1 mM or Pi 5 ug, 1 hr RT
Method: FIGS. 4A-4D show comparative inhibition of factor V cleavage and human clot fibrinolysis (dissolution) by Pi, EACA and a2AP. […] The relative migration of molecular weight standards is shown (kDa). […] Human plasma was clotted with CaCl2 (10 mM) and thrombin (1 U/ml) in the presence of trace amounts of 1251 fibrinogen for 1 h at 37 deg. C. After washing in 1 ml of TBS pH 7.4, tPA (5 nM) was added in the presence of various amounts of Pi (62.5 to 1000 nM), EACA (0.125 mM to 2 mM) or no inhibitor. After 2.5 h the amount of fibrinolysis was determined by measuring the amount of 125I-fibrin dissolved in the supernatant. Means of duplicate observations are shown. […] Clots were formed as above in the presence of human plasminogen (2 uM) and a2AP (1 uM) or Pi (1 uM) and various amounts of tPA (0-10 nM). Clot dissolution was monitored in duplicate over 2 h in microtiter plate wells at A405 nm. […] Human plasma clots were mixed with various concentrations of Pi IgG, Pi Fab and chimeric Pi Fab (25 nM-400 nM) and plasmin was activated by urokinase. The amount of clot lysis was determined as described in Methods.
Factor V cleavage. Human factor V (2 ug, IHFV, Innovative Research) was mixed with plasmin (0.05 ug) for 1 hr at RT in the presence of EACA (1 mM), Pi (5 ug) or a control monoclonal antibody (digoxin, 5 ug). […] Protein bands were detected by staining with Coomassie blue dye.

Chain of Plasmin (P00747 97-580 limits assumed): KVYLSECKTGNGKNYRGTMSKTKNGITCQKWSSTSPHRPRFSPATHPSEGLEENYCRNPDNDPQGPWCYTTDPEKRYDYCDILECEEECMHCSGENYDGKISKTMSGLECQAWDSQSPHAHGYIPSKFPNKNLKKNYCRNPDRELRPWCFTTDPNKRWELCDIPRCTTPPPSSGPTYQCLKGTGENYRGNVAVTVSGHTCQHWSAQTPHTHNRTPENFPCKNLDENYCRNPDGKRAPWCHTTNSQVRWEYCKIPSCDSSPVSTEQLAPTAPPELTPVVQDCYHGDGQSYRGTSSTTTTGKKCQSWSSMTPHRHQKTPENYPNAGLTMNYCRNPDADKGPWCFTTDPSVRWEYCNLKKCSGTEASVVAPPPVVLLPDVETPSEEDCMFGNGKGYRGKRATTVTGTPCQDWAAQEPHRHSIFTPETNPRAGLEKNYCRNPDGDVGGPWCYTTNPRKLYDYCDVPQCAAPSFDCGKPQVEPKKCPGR
Chain of Plasmin (P00747 581-810 limits assumed): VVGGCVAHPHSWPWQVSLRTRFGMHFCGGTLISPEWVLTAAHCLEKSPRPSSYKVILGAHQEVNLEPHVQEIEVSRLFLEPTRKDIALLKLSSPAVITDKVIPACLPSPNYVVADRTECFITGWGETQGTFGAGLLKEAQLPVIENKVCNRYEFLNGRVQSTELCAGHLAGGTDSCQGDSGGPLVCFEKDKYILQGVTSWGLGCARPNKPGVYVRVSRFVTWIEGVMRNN
Chain of plasmin-mediated cleavage of factor V (P00747 97-580 limits assumed): as the sequence (P00747 97-580 limits assumed) above
Chain of plasmin-mediated cleavage of factor V (P00747 581-810 limits assumed): as the sequence (P00747 581-810 limits assumed) above
Chain of mouse plasminogen (P20918 20-812 limits assumed): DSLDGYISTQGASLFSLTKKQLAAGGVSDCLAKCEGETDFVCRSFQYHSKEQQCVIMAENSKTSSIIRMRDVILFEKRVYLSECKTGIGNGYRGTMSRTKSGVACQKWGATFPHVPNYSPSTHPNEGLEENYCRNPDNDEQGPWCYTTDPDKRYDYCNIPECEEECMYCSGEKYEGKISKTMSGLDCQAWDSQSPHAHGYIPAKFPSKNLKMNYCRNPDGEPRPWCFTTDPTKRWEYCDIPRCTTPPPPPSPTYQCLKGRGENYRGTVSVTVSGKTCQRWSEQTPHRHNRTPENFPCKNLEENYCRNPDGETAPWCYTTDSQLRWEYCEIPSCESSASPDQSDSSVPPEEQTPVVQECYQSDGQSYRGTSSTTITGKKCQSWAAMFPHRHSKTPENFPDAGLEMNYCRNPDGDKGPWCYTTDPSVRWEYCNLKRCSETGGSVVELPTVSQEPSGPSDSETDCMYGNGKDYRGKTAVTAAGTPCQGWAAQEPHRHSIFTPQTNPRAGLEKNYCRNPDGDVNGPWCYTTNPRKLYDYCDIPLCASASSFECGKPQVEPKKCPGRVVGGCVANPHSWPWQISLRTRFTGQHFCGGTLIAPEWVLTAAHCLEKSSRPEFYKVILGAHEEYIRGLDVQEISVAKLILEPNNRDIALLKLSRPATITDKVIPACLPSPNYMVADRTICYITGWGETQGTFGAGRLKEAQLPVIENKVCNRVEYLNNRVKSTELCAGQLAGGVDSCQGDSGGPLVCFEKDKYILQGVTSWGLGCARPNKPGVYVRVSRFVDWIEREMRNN
Chain of human tPA (P00750 36-562): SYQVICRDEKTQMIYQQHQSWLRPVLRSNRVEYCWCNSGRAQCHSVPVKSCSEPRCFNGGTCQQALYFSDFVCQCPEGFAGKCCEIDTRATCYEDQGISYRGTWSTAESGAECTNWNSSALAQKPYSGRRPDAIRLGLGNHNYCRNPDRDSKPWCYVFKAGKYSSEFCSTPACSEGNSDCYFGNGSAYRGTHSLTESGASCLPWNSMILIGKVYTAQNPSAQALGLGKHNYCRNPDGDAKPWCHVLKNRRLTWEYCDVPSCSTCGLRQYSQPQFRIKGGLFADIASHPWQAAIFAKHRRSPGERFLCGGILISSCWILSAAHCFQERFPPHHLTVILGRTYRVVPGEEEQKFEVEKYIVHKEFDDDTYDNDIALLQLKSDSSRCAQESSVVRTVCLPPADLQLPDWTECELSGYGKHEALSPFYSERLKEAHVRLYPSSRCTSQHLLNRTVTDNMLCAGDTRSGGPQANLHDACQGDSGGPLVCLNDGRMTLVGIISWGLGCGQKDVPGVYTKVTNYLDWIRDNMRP

specific binding vs control anti-digoxin antibody (chymotrypsin): no specific binding
specific binding vs control anti-digoxin antibody (human tPA): no specific binding
specific binding vs control anti-digoxin antibody (mouse plasminogen): no specific binding
specific binding vs control anti-digoxin antibody (trypsin): no specific binding
effect on clot lysis [1]: dose-related suppression
effect on clot lysis (baboon clots): dose-related suppression
effect on Factor V cleavage by plasmin [3]: Factor V cleavage was attenuated
B1: Pi: mouse monoclonal antibody plasmin inhibitor binding plasmin protease domain loops 4 and 5; LC SEQ ID NO:1, HC SEQ ID NO:4 (antibody)
heavy: EVKLLESGGGLVQPGGSLKLSCAASGFDFSRYWMSWVRQAPGKGLEWIGEINPDSSTINYTPSLKDKFIISRDNAKNSLYLQMSKVRSEDTALYYCASYCGYSYDALDCWGQGTSVTVSSAKTTPPSVYPLAPGSAAQTNSMVTLGCLVKGYFPEPVTVTWNSGSLSSGVHTFPAVLQSDLYTLSSSVTVPSSTWPSETVTCNVAHPASSTKVDKKIVPRDCGCKPCICTVPEVSSVFIFPPKPKDVLTITLTPKVTCVVVDISKDDPEVQFSWFVDDVEVHTAQTQPREEQFNSTFRSVSELPIMHQDWLNGKEFKCRVNSVAFPAPIEKTISKTKGRPKAPQVYTIPPPKEQMAKDKVSLTCMITDFFPEDITVEWQWNGQPAENYKNTQPIMDTDGSYFVYGKLNVQKSNWEAGNTFTCSVLHEGLHNHHTEKSLSHSPGK
light: DIQMTQSPSSLSASLGGKVSITCKASQDINKYISWYQHKPGKGPRLLIHYTSTLQPGIPSRFSGSGSGRDYSFSISNLEPEDIATYYCLQYDNLYTFGGGTKLEIKRADAAPTVSIFPPSSEQLTSGGASVVCFLNNFYPKDINVKWKIDGSERQNGVLNSWTDQDSKDSTYSMSSTLTLTKDEYERHNSYTCEATHKTSTSPIVKSFNWNEC
effect on Vmax of plasmin cleavage of S2251 (Plasmin): reduced the Vmax of plasmin cleavage of S2251
effect on clot lysis (human clots): markedly prolonged plasmin-induced fibrinolysis
clot dissolution during 120 min [2]: did not significantly dissolve

— US11066482B2, “Specific plasmin inactivation by anticatalytic antibody” (priority 2017, dated 2021)
